The source of these data is patent publication EP0656117B1.

The target of test [1] is interleukin 6 receptor gp 80 (soluble Human Recombinant IL-6R) (human) (UniProt P08887). The test can be described thus: receptor binding assay, format not described; protein from bacterial periplasm.
Test [2] shares this target. Description: cell-based or functional assay.
The target is the same in test [3]. Description: receptor binding assay, format not described.
Test [4] has the same target. The test can be described thus: recovery of particles from balls coated with receptor, elution pH 3.6.
Test [5] has the same target. The test can be described thus: panning of a 1:1 mixture of 176 Arg and 179 Ala phasmids on receptor in solid phase, elution pH 3.6.
For test [6] the target is unchanged. Description: panning of a 1:100 mixture with M13K07 on polystyrene balls coated with shrIL-6R, elution pH 3.6 (eluate 1:10).

Chain of UniProt P08887 (P08887 20-355 limits assumed): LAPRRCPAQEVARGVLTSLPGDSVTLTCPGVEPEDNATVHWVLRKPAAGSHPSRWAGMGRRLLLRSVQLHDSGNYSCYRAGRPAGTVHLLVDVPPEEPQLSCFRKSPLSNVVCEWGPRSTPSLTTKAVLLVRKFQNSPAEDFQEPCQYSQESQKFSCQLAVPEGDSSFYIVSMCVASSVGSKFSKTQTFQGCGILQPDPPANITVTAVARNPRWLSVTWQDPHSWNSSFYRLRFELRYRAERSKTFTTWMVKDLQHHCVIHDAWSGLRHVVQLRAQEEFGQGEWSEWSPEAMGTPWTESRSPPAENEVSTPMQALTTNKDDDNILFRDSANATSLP

In the case of “interleukin 6 helix D mutant of phage 5-8 (183 Ala) (from UniProt P05231 29-212) (ligand)”, in test [1], the Receptor binding (%) turned out to be 240%.
On to “SAnt 1 (interleukin 6 Tyr31Asp/Gly35Phe/Ser118Arg/Val121Asp/Gln175Ile/Ser176Arg/Gln183Ala) (from UniProt P05231 29-212) (ligand)”, for which, in test [2], the 50% inhibition of interleukin 6 activity on hepatoma cells Hep3B (wild type IL-6 4 ng/ml) was determined as 19 ng/mL, the 50% inhibition of interleukin 6 activity on hepatoma cells HepG2 (wild type IL-6 4 ng/ml) is 32 ng/mL and the 50% inhibition of interleukin 6 activity on myeloma cells XG-1 (wild type IL-6 0.1 ng/ml) is 22 ng/mL. Moreover, the Receptor binding (% of wt) in test [3] came to 406%.
Consider “179 Ala phasmid (hIL-6 mutant 179 Ala shown on phasmid) (from UniProt P05231 29-212)”, for which the particles recovered relative to phasmid hIL-6 in test [4] was 0.2 relative.
On to “interleukin 6 helix D mutant of phage 5-4 (183 Tyr) (from UniProt P05231 29-212) (ligand)”, for which the Receptor binding (%) in test [1] turned out to be 240%.
With “IL-6 Tyr31Asp/Gly35Phe/Ser118Phe/Val121Asp (from UniProt P05231 29-212) (ligand)”, in test [2], the Inhibition of wild type interleukin 6 activity (growth of XG-1 human myeloma cells, wild type IL-6 0.1 ng/ml) at antagonist 3.3 ng/ml was found to be 0%; the Inhibition of wild type interleukin 6 activity (growth of XG-1 human myeloma cells, wild type IL-6 0.1 ng/ml) at antagonist 10 ng/ml stood at 7%; the Inhibition of wild type interleukin 6 activity (growth of XG-1 human myeloma cells, wild type IL-6 0.1 ng/ml) at antagonist 30 ng/ml turned out to be 18%; the Inhibition of wild type interleukin 6 activity (growth of XG-1 human myeloma cells, wild type IL-6 0.1 ng/ml) at antagonist 90 ng/ml came out at 35%. In test [2], the Inhibition of wild type interleukin 6 activity (growth of XG-1 human myeloma cells, wild type IL-6 0.1 ng/ml) at antagonist 270 ng/ml stood at 59%; the Inhibition of wild type interleukin 6 activity (growth of XG-1 human myeloma cells, wild type IL-6 0.1 ng/ml) at antagonist 810 ng/ml was 84%; the Inhibition of wild type interleukin 6 activity (growth of XG-1 human myeloma cells, wild type IL-6 0.1 ng/ml) at antagonist 2430 ng/ml was 90%; the Inhibition of wild type interleukin 6 activity (growth of XG-1 human myeloma cells, wild type IL-6 0.1 ng/ml) at antagonist 7290 ng/ml is 95%. For the same substance, in test [3], the Receptor binding (% of wild type) amounted to 76%.
Turning to “interleukin 6 helix C mutant 118 Leu / 121 Asp (from UniProt P05231 29-212) (ligand)”, the Receptor binding (% of wild type) in test [3] was 92%.
With “interleukin 6 helix C mutant 118 Arg / 121 Val (from UniProt P05231 29-212) (ligand)”, the Receptor binding (% of wild type) in test [3] is 81%.
Turning to “interleukin 6 helix D mutant of phage 4-8 (181 Ile, 183 Asn) (from UniProt P05231 29-212) (ligand)”, the Receptor binding (%) in test [1] was 100%.
On to “IL-6 Tyr31Asp/Gly35Phe/Ser118Arg/Val121Asp (from UniProt P05231 29-212) (ligand)”, for which, in test [2], the 50% inhibition of interleukin 6 activity on hepatoma cells Hep3B (wild type IL-6 4 ng/ml) is 164 ng/mL; the 50% inhibition of interleukin 6 activity on hepatoma cells HepG2 (wild type IL-6 4 ng/ml) was 132 ng/mL; the 50% inhibition of interleukin 6 activity on myeloma cells XG-1 (wild type IL-6 0.1 ng/ml) was determined as 190 ng/mL; the Inhibition of wild IL-6 (%) on human hepatoma cells (wild IL-6 4 ng/ml) at antagonist 16 ng/ml (4 X molar excess, 0.7 nM) stood at 23%. For the same substance, in test [2], the Inhibition of wild IL-6 (%) on human hepatoma cells (wild IL-6 4 ng/ml) at antagonist 60 ng/ml (15 X molar excess, 2.7 nM) was found to be 28%; the Inhibition of wild IL-6 (%) on human hepatoma cells (wild IL-6 4 ng/ml) at antagonist 164 ng/ml (41 X molar excess, 7.5 nM) was determined as 50%; the Inhibition of wild IL-6 (%) on human hepatoma cells (wild IL-6 4 ng/ml) at antagonist 500 ng/ml (125 X molar excess, 22.7 nM) was 75%; the Inhibition of wild IL-6 (%) on human hepatoma cells (wild IL-6 4 ng/ml) at antagonist 1000 ng/ml (250 X molar excess, 45.5 nM) came out at 82%. For the same substance, in test [2], the Inhibition of wild IL-6 (%) on human hepatoma cells (wild IL-6 4 ng/ml) at antagonist 2000 ng/ml (500 X molar excess, 90.0 nM) was found to be 90%; the Inhibition of wild IL-6 (%) on human hepatoma cells (wild IL-6 4 ng/ml) at antagonist 4000 ng/ml (1000 X molar excess, 181.8 nM) was determined as 96%; the Inhibition of wild type interleukin 6 activity (growth of XG-1 human myeloma cells, wild type IL-6 0.1 ng/ml) at antagonist 3.3 ng/ml stood at 6%; the Inhibition of wild type interleukin 6 activity (growth of XG-1 human myeloma cells, wild type IL-6 0.1 ng/ml) at antagonist 10 ng/ml was found to be 12%. In test [2], the Inhibition of wild type interleukin 6 activity (growth of XG-1 human myeloma cells, wild type IL-6 0.1 ng/ml) at antagonist 30 ng/ml turned out to be 25%; the Inhibition of wild type interleukin 6 activity (growth of XG-1 human myeloma cells, wild type IL-6 0.1 ng/ml) at antagonist 90 ng/ml was 42%; the Inhibition of wild type interleukin 6 activity (growth of XG-1 human myeloma cells, wild type IL-6 0.1 ng/ml) at antagonist 270 ng/ml was determined as 64%; the Inhibition of wild type interleukin 6 activity (growth of XG-1 human myeloma cells, wild type IL-6 0.1 ng/ml) at antagonist 810 ng/ml worked out at 84%. Further, in test [2], the Inhibition of wild type interleukin 6 activity (growth of XG-1 human myeloma cells, wild type IL-6 0.1 ng/ml) at antagonist 2430 ng/ml worked out at 90% and the Inhibition of wild type interleukin 6 activity (growth of XG-1 human myeloma cells, wild type IL-6 0.1 ng/ml) at antagonist 7290 ng/ml is 93%. In test [3], the Receptor binding (% of wild type) was found to be 97% and the Receptor binding (% of wt) worked out at 97%.
As to “interleukin 6 mutant Gln175Ile/Ser176Arg/Gln183Ala (from UniProt P05231 29-212) (ligand)”, in test [1], the Receptor binding (%) worked out at 450%.
“IL-6 Tyr31Asp/Gly35Phe/Ser118Leu/Val121Asp (from UniProt P05231 29-212) (ligand)”: in test [2], the Inhibition of wild type interleukin 6 activity (growth of XG-1 human myeloma cells, wild type IL-6 0.1 ng/ml) at antagonist 3.3 ng/ml came to 0%; the Inhibition of wild type interleukin 6 activity (growth of XG-1 human myeloma cells, wild type IL-6 0.1 ng/ml) at antagonist 10 ng/ml was determined as 3%; the Inhibition of wild type interleukin 6 activity (growth of XG-1 human myeloma cells, wild type IL-6 0.1 ng/ml) at antagonist 30 ng/ml turned out to be 10%; the Inhibition of wild type interleukin 6 activity (growth of XG-1 human myeloma cells, wild type IL-6 0.1 ng/ml) at antagonist 90 ng/ml came out at 31%. Also, in test [2], the Inhibition of wild type interleukin 6 activity (growth of XG-1 human myeloma cells, wild type IL-6 0.1 ng/ml) at antagonist 270 ng/ml was 53%; the Inhibition of wild type interleukin 6 activity (growth of XG-1 human myeloma cells, wild type IL-6 0.1 ng/ml) at antagonist 810 ng/ml was found to be 71%; the Inhibition of wild type interleukin 6 activity (growth of XG-1 human myeloma cells, wild type IL-6 0.1 ng/ml) at antagonist 2430 ng/ml was determined as 76%; the Inhibition of wild type interleukin 6 activity (growth of XG-1 human myeloma cells, wild type IL-6 0.1 ng/ml) at antagonist 7290 ng/ml was 81%. In addition, the Receptor binding (% of wild type) in test [3] came out at 63%.
As for “wild type human interleukin 6 (from UniProt P05231 30-212) (ligand)”, the Receptor binding (% of wild type) in test [3] amounted to 100%. For the same substance, the Receptor binding (%) in test [1] came to 100%.
As to “IL-6 Ser118Arg/Val121Asp (from UniProt P05231 29-212) (ligand)”, in test [3], the Receptor binding (% of wild type) was 66%.
Consider “176 Arg phasmid (hIL-6 mutant 176 Arg shown on phasmid) (from UniProt P05231 30-212)”, for which the particles recovered relative to phasmid hIL-6 in test [4] was 3 relative. For the same substance, in test [5], the ratio of particles in the eluate against 179 Ala phasmid is 15 ratio (to 1).
Regarding “hIL-6 phasmid (phage particle with hIL6-pIII fusion molecules) (from UniProt P05231 30-212)”, in test [4], the particles recovered relative to phasmid hIL-6 is 1 relative. In addition, the enrichment with respect to M13K07 in test [6] was found to be 10 fold.
In the case of M13K07 helper bacteriophage particles, the particles recovered relative to phasmid hIL-6 in test [4] was found to be 0.18 relative.
As to “interleukin 6 helix C mutant 118 Ser / 121 Asp (from UniProt P05231 29-212) (ligand)”, in test [3], the Receptor binding (% of wild type) is 78%.
Turning to “interleukin 6 helix D mutant of phage 5-3 (175 Ile, 181 Val, 183 His) (from UniProt P05231 29-212) (ligand)”, the Receptor binding (%) in test [1] came to 80%.
Consider “interleukin 6 mutant Gln175Ile/Gln183Ala (phage 5-2) (from UniProt P05231 29-212) (ligand)”, for which the Receptor binding (%) in test [1] was 260%.
In the case of “interleukin 6 helix A and C mutant 31 Asp / 35 Phe / 118 Arg / 121 Val (from UniProt P05231 29-212) (ligand)”, the Receptor binding (% of wild type) in test [3] came out at 66%.
